Experiment [1] concerns the target large-conductance calcium-activated potassium (BKCa) channel alpha subunit (rat (endogenous in mesenteric arteries)) (UniProt Q62976).
Experiment [2] has the same target. This is another data set of the same source.

inositol 1,4,5-trisphosphate receptor 1, P29994 1-2750 (natural protein), sequence (P29994 whole entry): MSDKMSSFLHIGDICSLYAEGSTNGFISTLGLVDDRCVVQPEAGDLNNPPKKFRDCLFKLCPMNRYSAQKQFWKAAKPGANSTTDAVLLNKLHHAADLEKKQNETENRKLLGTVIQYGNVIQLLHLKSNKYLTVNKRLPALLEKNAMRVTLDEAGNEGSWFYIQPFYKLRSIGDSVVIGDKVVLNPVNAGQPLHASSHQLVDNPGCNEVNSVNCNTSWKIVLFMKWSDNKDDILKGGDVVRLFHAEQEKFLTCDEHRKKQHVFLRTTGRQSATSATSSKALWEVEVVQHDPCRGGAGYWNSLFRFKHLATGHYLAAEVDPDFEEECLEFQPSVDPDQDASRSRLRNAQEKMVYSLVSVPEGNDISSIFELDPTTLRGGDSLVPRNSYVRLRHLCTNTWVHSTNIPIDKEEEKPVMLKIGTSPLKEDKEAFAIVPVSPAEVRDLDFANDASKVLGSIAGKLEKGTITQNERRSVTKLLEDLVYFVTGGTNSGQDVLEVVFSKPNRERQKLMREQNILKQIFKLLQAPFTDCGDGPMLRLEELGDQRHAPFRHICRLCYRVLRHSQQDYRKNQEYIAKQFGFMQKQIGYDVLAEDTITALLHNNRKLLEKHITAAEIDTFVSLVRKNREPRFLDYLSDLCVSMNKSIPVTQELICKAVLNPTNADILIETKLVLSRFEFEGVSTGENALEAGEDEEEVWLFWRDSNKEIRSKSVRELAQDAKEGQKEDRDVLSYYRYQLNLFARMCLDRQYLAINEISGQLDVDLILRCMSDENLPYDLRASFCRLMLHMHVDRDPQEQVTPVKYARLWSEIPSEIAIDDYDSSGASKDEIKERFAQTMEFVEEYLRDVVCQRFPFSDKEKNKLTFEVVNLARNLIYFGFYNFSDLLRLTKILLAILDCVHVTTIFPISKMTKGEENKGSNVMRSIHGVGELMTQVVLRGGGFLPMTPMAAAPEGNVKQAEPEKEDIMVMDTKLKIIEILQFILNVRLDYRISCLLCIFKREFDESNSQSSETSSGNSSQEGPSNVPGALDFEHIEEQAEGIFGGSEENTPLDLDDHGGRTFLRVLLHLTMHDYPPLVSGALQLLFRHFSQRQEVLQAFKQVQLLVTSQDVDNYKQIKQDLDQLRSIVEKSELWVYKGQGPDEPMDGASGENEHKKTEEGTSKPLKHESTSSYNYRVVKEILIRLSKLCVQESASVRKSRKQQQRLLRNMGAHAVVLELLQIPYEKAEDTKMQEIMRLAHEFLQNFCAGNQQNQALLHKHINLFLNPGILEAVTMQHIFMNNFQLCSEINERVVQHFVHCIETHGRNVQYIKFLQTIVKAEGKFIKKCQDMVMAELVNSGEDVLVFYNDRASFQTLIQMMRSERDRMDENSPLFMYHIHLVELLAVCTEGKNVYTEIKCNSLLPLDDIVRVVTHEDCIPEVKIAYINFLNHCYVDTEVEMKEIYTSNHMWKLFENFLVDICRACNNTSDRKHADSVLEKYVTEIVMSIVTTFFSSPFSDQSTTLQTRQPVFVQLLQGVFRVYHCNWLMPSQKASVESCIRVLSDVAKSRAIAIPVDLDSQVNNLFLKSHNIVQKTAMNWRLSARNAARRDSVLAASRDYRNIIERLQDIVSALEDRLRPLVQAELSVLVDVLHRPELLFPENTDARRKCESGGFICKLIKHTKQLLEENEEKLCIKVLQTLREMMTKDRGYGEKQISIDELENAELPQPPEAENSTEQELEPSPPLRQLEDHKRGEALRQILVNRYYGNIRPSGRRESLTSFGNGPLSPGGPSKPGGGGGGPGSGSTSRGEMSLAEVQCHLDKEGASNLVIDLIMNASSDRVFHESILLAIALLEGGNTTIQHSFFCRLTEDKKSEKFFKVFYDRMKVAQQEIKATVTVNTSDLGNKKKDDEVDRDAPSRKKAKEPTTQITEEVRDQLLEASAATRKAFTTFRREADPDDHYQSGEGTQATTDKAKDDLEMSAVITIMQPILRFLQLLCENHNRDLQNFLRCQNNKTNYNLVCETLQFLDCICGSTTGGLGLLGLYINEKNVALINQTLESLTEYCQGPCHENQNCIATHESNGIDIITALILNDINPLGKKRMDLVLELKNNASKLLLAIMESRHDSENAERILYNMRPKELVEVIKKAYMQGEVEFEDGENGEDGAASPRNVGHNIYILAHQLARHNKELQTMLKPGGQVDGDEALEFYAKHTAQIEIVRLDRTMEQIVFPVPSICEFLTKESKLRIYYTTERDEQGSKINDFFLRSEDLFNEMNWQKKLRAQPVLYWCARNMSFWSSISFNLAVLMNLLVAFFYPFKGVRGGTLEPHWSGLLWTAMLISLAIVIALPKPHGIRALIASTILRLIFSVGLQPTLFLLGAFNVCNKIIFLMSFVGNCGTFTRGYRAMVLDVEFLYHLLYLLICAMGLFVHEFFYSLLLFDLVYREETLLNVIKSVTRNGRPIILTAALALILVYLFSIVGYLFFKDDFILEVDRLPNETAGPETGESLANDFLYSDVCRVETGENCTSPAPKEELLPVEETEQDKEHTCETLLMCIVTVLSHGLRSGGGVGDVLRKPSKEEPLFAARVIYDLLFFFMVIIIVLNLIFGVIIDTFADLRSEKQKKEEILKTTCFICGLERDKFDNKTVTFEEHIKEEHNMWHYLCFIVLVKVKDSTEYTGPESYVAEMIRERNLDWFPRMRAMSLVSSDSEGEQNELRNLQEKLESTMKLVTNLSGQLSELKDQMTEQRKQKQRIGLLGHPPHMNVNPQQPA
large-conductance calcium-activated potassium (BKCa) channel alpha subunit (rat (endogenous in mesenteric arteries)), sequence (Q62976 whole entry): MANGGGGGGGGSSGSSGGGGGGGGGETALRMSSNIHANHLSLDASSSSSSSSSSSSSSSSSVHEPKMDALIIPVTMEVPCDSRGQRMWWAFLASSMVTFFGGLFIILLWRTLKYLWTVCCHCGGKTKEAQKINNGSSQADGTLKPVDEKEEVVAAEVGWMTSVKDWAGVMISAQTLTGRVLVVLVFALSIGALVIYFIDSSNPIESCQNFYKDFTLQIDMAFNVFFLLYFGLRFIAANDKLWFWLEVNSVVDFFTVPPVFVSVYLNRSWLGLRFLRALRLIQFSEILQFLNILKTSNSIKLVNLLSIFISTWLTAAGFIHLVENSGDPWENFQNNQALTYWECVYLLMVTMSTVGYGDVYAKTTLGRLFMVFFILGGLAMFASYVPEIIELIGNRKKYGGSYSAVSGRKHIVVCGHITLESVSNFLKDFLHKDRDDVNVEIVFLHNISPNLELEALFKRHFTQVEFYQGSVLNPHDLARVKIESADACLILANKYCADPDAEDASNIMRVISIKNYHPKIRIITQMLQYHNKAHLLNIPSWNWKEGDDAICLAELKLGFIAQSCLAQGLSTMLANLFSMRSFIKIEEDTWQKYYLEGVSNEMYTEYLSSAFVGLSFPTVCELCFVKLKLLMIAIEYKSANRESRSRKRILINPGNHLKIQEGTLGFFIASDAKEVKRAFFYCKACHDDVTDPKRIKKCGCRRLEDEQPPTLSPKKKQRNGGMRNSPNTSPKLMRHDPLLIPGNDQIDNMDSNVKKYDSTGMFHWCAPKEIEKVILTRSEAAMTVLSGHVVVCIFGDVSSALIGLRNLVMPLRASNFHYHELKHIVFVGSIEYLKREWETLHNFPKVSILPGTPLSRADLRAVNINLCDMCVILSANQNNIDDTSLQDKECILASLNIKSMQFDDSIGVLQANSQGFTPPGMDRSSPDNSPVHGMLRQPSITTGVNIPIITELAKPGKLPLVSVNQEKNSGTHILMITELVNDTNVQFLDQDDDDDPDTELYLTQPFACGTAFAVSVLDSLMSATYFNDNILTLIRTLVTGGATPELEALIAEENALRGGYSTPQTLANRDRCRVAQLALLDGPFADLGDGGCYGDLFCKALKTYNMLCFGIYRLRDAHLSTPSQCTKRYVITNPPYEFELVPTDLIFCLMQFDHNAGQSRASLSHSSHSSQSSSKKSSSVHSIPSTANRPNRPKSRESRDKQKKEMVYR

Consider “inositol 1,4,5-trisphosphate receptor 1, P29994 1-2750 (natural protein)”, for which, in experiment [1], the whole-cell BKCa current density at +60 mV in mesenteric VSMCs of WKY rats before and after the IP3R agonist Adenophostin A was determined as 142 pA/pF. Besides, in experiment [2], the whole-cell BKCa current density at +60 mV in mesenteric VSMCs of SHR before and after the IP3R agonist Adenophostin A worked out at 65.6 pA/pF.

The record behind these values is article PMC10341547.
